Data published in patent US20220168396A1, “MULTI-RECEPTOR AGONIST AND MEDICAL USE THEREOF” (published 2022).
Square brackets hold non-standard residues; d marks the D form. Ends that are not written are not given here. Aib = CC(C)(N)C(=O)O

T1: human glucose-dependent insulinotropic peptide receptor (human, UniProt P48546)
T1 sequence: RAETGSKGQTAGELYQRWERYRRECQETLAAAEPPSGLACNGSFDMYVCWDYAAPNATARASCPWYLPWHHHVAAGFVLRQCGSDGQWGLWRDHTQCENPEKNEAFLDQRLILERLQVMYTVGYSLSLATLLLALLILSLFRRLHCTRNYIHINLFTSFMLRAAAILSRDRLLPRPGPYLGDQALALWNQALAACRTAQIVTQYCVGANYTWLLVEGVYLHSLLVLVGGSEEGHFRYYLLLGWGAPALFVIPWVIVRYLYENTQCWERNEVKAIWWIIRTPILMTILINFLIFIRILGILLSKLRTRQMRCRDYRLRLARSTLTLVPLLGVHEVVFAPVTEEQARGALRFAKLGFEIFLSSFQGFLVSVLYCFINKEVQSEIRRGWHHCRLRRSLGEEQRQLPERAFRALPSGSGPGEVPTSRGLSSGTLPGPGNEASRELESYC


How the values were obtained:
[1] = target: human glucagon-like peptide-1 receptor (human, UniProt P43220); assay: cell-based or functional assay
[2] = target: T1, human glucose-dependent insulinotropic …; assay: cell-based or functional assay

Binder	Activity for human GLP-1R (EC50 nM), cAMP HTRF [1] [nM]	Activity for human GIPR (EC50 nM), cAMP HTRF [2] [nM]
Y[Aib]EGTFTSDVSIYLDKIAAQEFVNWLLAGGPSSGAPPPS-NH2 (N-terminus assumed; SMILES CC[C@H](C)[C@H](NC(=O)[C@H](CCCCN)NC(=O)[C@H](CC(=O)O)NC(=O)[C@H](CC(C)C)NC(=O)[C@H](Cc1ccc(O)cc1)NC(=O)[C@@H](NC(=O)[C@H](CO)NC(=O)[C@@H](NC(=O)[C@H](CC(=O)O)NC(=O)[C@H](CO)NC(=O)[C@@H](NC(=O)[C@H](Cc1ccccc1)NC(=O)[C@@H](NC(=O)CNC(=O)[C@H](CCC(=O)O)NC(=O)C(C)(C)NC(=O)[C@@H](N)Cc1ccc(O)cc1)[C@@H](C)O)[C@@H](C)O)C(C)C)[C@@H](C)CC)C(=O)N[C@@H](C)C(=O)N[C@@H](C)C(=O)N[C@@H](CCC(N)=O)C(=O)N[C@@H](CCC(=O)O)C(=O)N[C@@H](Cc1ccccc1)C(=O)N[C@H](C(=O)N[C@@H](CC(N)=O)C(=O)N[C@@H](Cc1c[nH]c2ccccc12)C(=O)N[C@@H](CC(C)C)C(=O)N[C@@H](CC(C)C)C(=O)N[C@@H](C)C(=O)NCC(=O)NCC(=O)N1CCC[C@H]1C(=O)N[C@@H](CO)C(=O)N[C@@H](CO)C(=O)NCC(=O)N[C@@H](C)C(=O)N1CCC[C@H]1C(=O)N1CCC[C@H]1C(=O)N1CCC[C@H]1C(=O)N[C@@H](CO)C(N)=O)C(C)C) [Compound No. 69]	0.052	0.12
Y[Aib]EGTFTSDVSSYLEEEAAKEFIAWLVRGGPSSGAPPPSK-NH2 (N-terminus assumed; SMILES CC[C@H](C)[C@H](NC(=O)[C@H](Cc1ccccc1)NC(=O)[C@H](CCC(=O)O)NC(=O)[C@H](CCCCN)NC(=O)[C@H](C)NC(=O)[C@H](C)NC(=O)[C@H](CCC(=O)O)NC(=O)[C@H](CCC(=O)O)NC(=O)[C@H](CCC(=O)O)NC(=O)[C@H](CC(C)C)NC(=O)[C@H](Cc1ccc(O)cc1)NC(=O)[C@H](CO)NC(=O)[C@H](CO)NC(=O)[C@@H](NC(=O)[C@H](CC(=O)O)NC(=O)[C@H](CO)NC(=O)[C@@H](NC(=O)[C@H](Cc1ccccc1)NC(=O)[C@@H](NC(=O)CNC(=O)[C@H](CCC(=O)O)NC(=O)C(C)(C)NC(=O)[C@@H](N)Cc1ccc(O)cc1)[C@@H](C)O)[C@@H](C)O)C(C)C)C(=O)N[C@@H](C)C(=O)N[C@@H](Cc1c[nH]c2ccccc12)C(=O)N[C@@H](CC(C)C)C(=O)N[C@H](C(=O)N[C@@H](CCCNC(=N)N)C(=O)NCC(=O)NCC(=O)N1CCC[C@H]1C(=O)N[C@@H](CO)C(=O)N[C@@H](CO)C(=O)NCC(=O)N[C@@H](C)C(=O)N1CCC[C@H]1C(=O)N1CCC[C@H]1C(=O)N1CCC[C@H]1C(=O)N[C@@H](CO)C(=O)N[C@@H](CCCCN)C(N)=O)C(C)C) [Compound No. 2]	0.017	3.5
Y[Aib]EGTFTSDYSIYLEEIAAQEFVNWLLAGGPSSGAPPPS-NH2 (N-terminus assumed; SMILES CC[C@H](C)[C@H](NC(=O)[C@H](CCC(=O)O)NC(=O)[C@H](CCC(=O)O)NC(=O)[C@H](CC(C)C)NC(=O)[C@H](Cc1ccc(O)cc1)NC(=O)[C@@H](NC(=O)[C@H](CO)NC(=O)[C@H](Cc1ccc(O)cc1)NC(=O)[C@H](CC(=O)O)NC(=O)[C@H](CO)NC(=O)[C@@H](NC(=O)[C@H](Cc1ccccc1)NC(=O)[C@@H](NC(=O)CNC(=O)[C@H](CCC(=O)O)NC(=O)C(C)(C)NC(=O)[C@@H](N)Cc1ccc(O)cc1)[C@@H](C)O)[C@@H](C)O)[C@@H](C)CC)C(=O)N[C@@H](C)C(=O)N[C@@H](C)C(=O)N[C@@H](CCC(N)=O)C(=O)N[C@@H](CCC(=O)O)C(=O)N[C@@H](Cc1ccccc1)C(=O)N[C@H](C(=O)N[C@@H](CC(N)=O)C(=O)N[C@@H](Cc1c[nH]c2ccccc12)C(=O)N[C@@H](CC(C)C)C(=O)N[C@@H](CC(C)C)C(=O)N[C@@H](C)C(=O)NCC(=O)NCC(=O)N1CCC[C@H]1C(=O)N[C@@H](CO)C(=O)N[C@@H](CO)C(=O)NCC(=O)N[C@@H](C)C(=O)N1CCC[C@H]1C(=O)N1CCC[C@H]1C(=O)N1CCC[C@H]1C(=O)N[C@@H](CO)C(N)=O)C(C)C) [Compound No. 70]	0.017	0.017
Y[Aib]EGTFTSDYSIYLEKEAAKEFVAWLLAGGPSSGAPPPS-NH2 (N-terminus assumed; SMILES CC[C@H](C)[C@H](NC(=O)[C@H](CO)NC(=O)[C@H](Cc1ccc(O)cc1)NC(=O)[C@H](CC(=O)O)NC(=O)[C@H](CO)NC(=O)[C@@H](NC(=O)[C@H](Cc1ccccc1)NC(=O)[C@@H](NC(=O)CNC(=O)[C@H](CCC(=O)O)NC(=O)C(C)(C)NC(=O)[C@@H](N)Cc1ccc(O)cc1)[C@@H](C)O)[C@@H](C)O)C(=O)N[C@@H](Cc1ccc(O)cc1)C(=O)N[C@@H](CC(C)C)C(=O)N[C@@H](CCC(=O)O)C(=O)N[C@@H](CCCCN)C(=O)N[C@@H](CCC(=O)O)C(=O)N[C@@H](C)C(=O)N[C@@H](C)C(=O)N[C@@H](CCCCN)C(=O)N[C@@H](CCC(=O)O)C(=O)N[C@@H](Cc1ccccc1)C(=O)N[C@H](C(=O)N[C@@H](C)C(=O)N[C@@H](Cc1c[nH]c2ccccc12)C(=O)N[C@@H](CC(C)C)C(=O)N[C@@H](CC(C)C)C(=O)N[C@@H](C)C(=O)NCC(=O)NCC(=O)N1CCC[C@H]1C(=O)N[C@@H](CO)C(=O)N[C@@H](CO)C(=O)NCC(=O)N[C@@H](C)C(=O)N1CCC[C@H]1C(=O)N1CCC[C@H]1C(=O)N1CCC[C@H]1C(=O)N[C@@H](CO)C(N)=O)C(C)C) [Compound No. 66]	0.026	0.054
Y[Aib]EGTFTSDYSIYLEEEAAKEFVNWLLAGGPSSGAPPPS-NH2 (N-terminus assumed; SMILES CC[C@H](C)[C@H](NC(=O)[C@H](CO)NC(=O)[C@H](Cc1ccc(O)cc1)NC(=O)[C@H](CC(=O)O)NC(=O)[C@H](CO)NC(=O)[C@@H](NC(=O)[C@H](Cc1ccccc1)NC(=O)[C@@H](NC(=O)CNC(=O)[C@H](CCC(=O)O)NC(=O)C(C)(C)NC(=O)[C@@H](N)Cc1ccc(O)cc1)[C@@H](C)O)[C@@H](C)O)C(=O)N[C@@H](Cc1ccc(O)cc1)C(=O)N[C@@H](CC(C)C)C(=O)N[C@@H](CCC(=O)O)C(=O)N[C@@H](CCC(=O)O)C(=O)N[C@@H](CCC(=O)O)C(=O)N[C@@H](C)C(=O)N[C@@H](C)C(=O)N[C@@H](CCCCN)C(=O)N[C@@H](CCC(=O)O)C(=O)N[C@@H](Cc1ccccc1)C(=O)N[C@H](C(=O)N[C@@H](CC(N)=O)C(=O)N[C@@H](Cc1c[nH]c2ccccc12)C(=O)N[C@@H](CC(C)C)C(=O)N[C@@H](CC(C)C)C(=O)N[C@@H](C)C(=O)NCC(=O)NCC(=O)N1CCC[C@H]1C(=O)N[C@@H](CO)C(=O)N[C@@H](CO)C(=O)NCC(=O)N[C@@H](C)C(=O)N1CCC[C@H]1C(=O)N1CCC[C@H]1C(=O)N1CCC[C@H]1C(=O)N[C@@H](CO)C(N)=O)C(C)C) [Compound No. 71]	0.017	0.042
